According to the nanobody polyreactivity screen of Harvey et al. (2022):

Test: yeast display, Sf9 membrane polyspecificity reagent, FACS + sequencing; frameworks hold sequencing errors
In short: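 Polyreactivity labels are assigned by the sorting gate from which each nanobody was recovered. The gates were low and high (top ~1%), set on anti-HA fluorescence for expression and streptavidin fluorescence for reagent binding. Before sorting, galactose-induced (36–48 hours) yeast display cells were stained for 1 hour at 4 °C with 10% biotinylated, detergent-solubilized Sf9 membrane reagent.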

Sequence	polyreactivity (PSR sort gate)
QFQLVESGGGLVQAGGSLRLSCAASGSTFVYYAMGWYRQAPGKERELVAAITASGGGTYYADSVKGRFTISRDNAKNTVYLQMNSLKPEDTAVYYCAAYLGWGYDYWGQGTQVTVSS	low polyreactivity
QFQLVESGGGLVQAGGSLRLSCAASGSTIIKNAMGWYRQAPGKERELVAAINWSVTRTYYADSVKGRFTISRDNAKNTVYLQMNSLKPEDTAVYYCAKVIARFVRYDYWGQGTQVTVSS	high polyreactivity
QFQLVESGGGLVQAGGSLRLSCAASGSTYSYYAMGWYRQAPGKERELVAAISSRGGSTYYADSVKGRFTISRDNAMNTVYLQMNSLKPEDTAVYYCNADHQFRSSVSGDHDYWGQGTQVTVSS	high polyreactivity
QFQLVESGGGLVQAGGSLRLSCAASGVSNALGWYRQAPGKERELVAAISRSGGSTYYADSVKGRFTISRANAKNTVNLQMNSLKPEDTAVYYCAVGYTYVYRYSSHKYDYWGEGTQVTVSS	high polyreactivity
QFQLVESGGGLVQAGGSLRLSCAASRFYTMGWSRQAPGKERELVAAISWSGGDTYYADSVKGRFTISRDNAKNTVYLQMTSLKPEDTAVYYCAKKTIGSYVHEPYYYWGHGTQVTVSS	low polyreactivity
QFQLVESGGGLVQAGGSLRLSCADSGSIFSGYAMGRYRQEPGKDSELVASITRGGSTYYADSVKGRFTISLDNAKNNVYLQINSLKQEDTAVYYCARYGYKNRPLGMDYWGQGTQVTVSS	low polyreactivity
QFQLVESGGGLVQAGGSLRLSCASSGSIIGIYAMGWYRQAPGKERELVAAISWSGGSTYYADSVKGRFTISRDNAKNTVYLQMNSLKPEDTAVYYCAARGHYQYYWGQGTQVTVSS	high polyreactivity
QFQLVESGGGLVQAGGSLRLSSAASGSIFYTNAMGWYRQAPGKEREFVAGITRRGTSTNYADSVKGRFTISRDNAKNSVYLQMNSLKPEVTAVYYCNARYYLYWGQGTQVTVSS	low polyreactivity
QFQLVESGGGLVQARGRLRLSCAASGSIFSYNAMGWYRQAPGKERELVARISSSGSTNYADSVKGRFTISRDNAKNTVYIQMNSLKPEDTAVYYCNKDPYWPSWTRRRREYYYWGQGTQVTVSS	high polyreactivity
QFQLVESGGGLVQARGSLRLSCAASGSIFDLNAMGWYRPAPGKERELVAAISSGGGTYYADSVKGRFTISRDNAKNTVYFQMYSLKPDDSAVYYCAAGKSSPRRIFEYWGQGTEVTVSS	high polyreactivity
QFQLVESGGGLVQARGSLRLSCAASGSTFRYYGMGWYRQTPGKERELVAAISSSGGSTYYADSVKGRFTISRDNAKITVYLKMNSLKPEDNAVYYCAAGSRFVSSRLYYWGQGTQVTVSS	high polyreactivity
QFQLVESGGGLYQAGGSLRLSCASSGITLYFYAMGWYRQAPGKVRELVAAISRGGRTYYADSVKGRFTISRDNAKNTVYLQMNSLKPEDTAVYYCAARYTSEYSAFDYWGQGTQVTVSS	low polyreactivity
QFQLVESGGVLDQAGCSLRLSCAASGYTFYANAMGWYRQAPGKEREFVASIPWSGGSTYYADSVKGRFTISRDNAKNTVYLQMNSLKPEDTAVYYCAAESWFKYDYWGQGTQVTVSS	low polyreactivity
QFQLVESGVGLVQAGGSLRFSCAASGRIFMPNAMGWYRQSPGKEREFVASISWSGGSTYYADSVKGRFTISRDNAKTTDYLQMNSLKPEDTAVYYCNARYGKRYYYWGQGTQVTVSS	low polyreactivity
QFQLVESVRGLVQAGVSLRLSCAASGSTFNFYAMGLYRQPPGKERELVAAIRQSSGRTYYADSVKGRFTISRDNGNYTVYLQMNSLKPEDTAVYYCAAVRYNFNFKMYYWGQGTQVTVSS	high polyreactivity
QFQLVESWGGLVQAGGSLRLSCAASGTMGWYRQAPVKERELVAAISQSGGSTYYADSVKGRFTISRDNAKNTVYLQMNSLKPEDTAVYYCAVDPLYGDPRRDYWGQGTQVTVSS	low polyreactivity
QFQLVETGGGLDQAGGSLRLSCAASGTTFGVYAMGWYRQAPGKERELVAVITSRGGSTYYADSVKGRFTISRDNAKNTVYLQMNSLIPEDTAVYYCNVDSAYRRPPYDYWGQGTQVTVSS	high polyreactivity
QGQHVESGGGLVQAGGSLRLSCAASGTFVYAMGWYRQAPGKERELVAAISYSGGSTYYADSVKGRFTISRDNAKNTVYLQMNSLKPEDTAVFYCNVLGWYYTTTKYDYWGQGTQVTVSS	high polyreactivity
QGQIVESGGGLGQAGGSLRLSCAASGSIFWANAMGWYSQSPWKERELVAAISSSGGRTYYADSVKGRFTISRDNAKNTVYLQMNSLKPEDTAVHYCNKLRLPYYEQGDYWGQGTQVTVSS	high polyreactivity
QGQLEDSGGGLVQAGGSLRLSCAASGFSFRSYGMGRYRQAPGKERELVAVISRSGGNTYYAASVKGRFTISRHNAKNTVYLQMHSLKPEDTAVYYCAATLVGTVIRRFDDWGQGTQVTVSS	high polyreactivity
QGQLEESGGGLVQAGGSLRLSCAAAGITFVDYSMGWYRQAPGKEMELVAGINWSGDGTSYADSVKGRFTISRDNAKNTVYLLMNSLKPEDTAVYDCAAYWYYYLMDYWGQGTQVTVSS	low polyreactivity
QGQLGESGGGLVQAGGSLRLTCAASGNIFFVYAMGWYRQAPGNEWELVAAITWGGGSTNYADSVKGRFTISRDNAKKTVYLQMNSLKPEDTAVYYCATDNRYVVDSYYWGQGTQVTVSS	high polyreactivity

Sequence	polyreactivity (PSR sort gate)
QGQLLESGGGLVQAGGSLRLSCAASRFNFRFYAIGWYRQAPGKERELVASITQGGSTYYADSVKGSFTISRDNAKNTVYLQMNSLKPVDTAVYSCAARYLGGRRSGDYSRYYWGQGTQVSVSS	high polyreactivity
QGQLVDSGGGLVQAGGSLRLSCAASGSTFKNNAMGWYRQAPGKEREFVASISKRGGSTYYADSVKGRFTISRDNAKNTVYLQMNSMKPEDTAVYYCAKTYWSYGLSHGDYGEFDYWGQGTQVTVSS	high polyreactivity
QGQLVESAGGLVQAGGSLRLSCAASGSILWHYAMGWYRQAHGKERELVAAISGSGSTIYADSVKGRFTISRDNAKNTVYLQLITLKPEDTADYYCARVHGTSESKYYYWGQGTQVTVSL	low polyreactivity
QGQLVESGAGLVKAGGSLRISCAASGYTFPSNARAWYRHAPGTPRQLVAAISSGGRTNYADSLKGRFTISRDNAKNTVYLQMNRLKPEDTAVYNCNADGGPGYPSAYDYWVQGTQVTVSS	low polyreactivity
QGQLVESGGCLVQAGGSLRLSCAASGRTFYRNAMCLYRQSPGKERELVAVISSSGVRTYYADSVKGRFTISRDNAKNTVYLQMNSLKPEDTAVYYCAADSNSYYRGFDYWGQGTQVTVSS	high polyreactivity
QGQLVESGGGLVQAAGSLSLSCAASGRIYPYAMGWYRQAPGKERELVAAIPVNDGSTYYADSVTGRFTIARDNAMISVDLQMNSRKPEVSAVYYWKADYPIGWRNQYVQILYDYWGQGTQVTVSS	low polyreactivity
QGQLVESGGGLVQAGGSLPLSCAASGFTFRWNTMGWSRQGPGKEREFVASISQRGGRTFYADSVKGRFTISRDNAKNTVYIQMNCQKPEDTAVYFCNARGHRAVPGDELGYWGQGTQVTVSS	low polyreactivity
QGQLVESGGGLVQAGGSLRISCGASGYIFGDKAMGWYRPEPGKARELVAAITQTGANTYYADSVMGRFTISRDNAKNTVYLQMNSLKPEDSAVYYCNKVSVVYSRSKGFYYTYLKYEFWGQGTQVTVSS	low polyreactivity
QGQLVESGGGLVQAGGSLRLSCAASGFIFSIYAMGWYRQAPGKDRELVAGIDNGGGTYYADSGKGRFTISRDNAKNTVYLQMNRLKPEDTAVYYCAADTYSIGELYDYWGQGTQVTVSS	low polyreactivity
QGQLVESGGGLVQAGGSLRLSCAASGFTFDYYAMGWYRQAPGKARELVAAITTAASTNYADSVKGRFTISRDTAKNTVYFQMNSLKPEDTAVYYCAASWWPWYISWDDYWGQGTQVTVSS	high polyreactivity
QGQLVESGGGLVQAGGSLRLSCAASGFTFPHYAMGWYRQAPGKERELVAAISWSGGSTFSADSVKGRFTISRDTAKNNVYLQMNSLKPADTAVYYCAARSRSWTPYYYWGQGTQVTVSS	high polyreactivity
QGQLVESGGGLVQAGGSLRLSCAASGFTFTSNAMGWYRQAPGQERELVAVISTRGGSTFYADSGKGRFTISRDNAKNTVYLQMNSLKPEDTAVYYCAADSTDYRWTAYYWGQGTQVTVSS	high polyreactivity
QGQLVESGGGLVQAGGSLRLSCAASGFTLLPYAMGWYRQAPGKERELVAAISRRGVSTYYADSVKGRFTISRDNAKNTVYLQMISLKPEDTAVYYCAAKYRKWPMDYWGQGTQVTVSS	high polyreactivity
QGQLVESGGGLVQAGGSLRLSCAASGIIFGGYTMGWYRQAPGKERELVAAITKRTDRTYYADSVKGRFTISRDNAKNTVYLQMHSMKPEDTAVYYCATRGGITRPWYGYDYWGQGTQVTVSS	high polyreactivity
QGQLVESGGGLVQAGGSLRLSCAASGLIFVWYAMGWYRQARGKERELVAAISWSGGSTYYADSVKGRFTISRDNAKNTVYLQMNSLKPEDTAVYYCATDPYGYSYLLVDYNYWGQGTQVTVSS	low polyreactivity
QGQLVESGGGLVQAGGSLRLSCAASGRIFRANAMGWYRQAPGKERELVAAIDASGGSTYYADSVKGRFTISRDNAKNTVYLQMNSLKPEDTAVYDCAADRGFLRSFAPGNMDYWGQGTQVTVSS	low polyreactivity
QGQLVESGGGLVQAGGSLRLSCAASGRTFWYYTIGWYRQAPGKERELVAAISSGGRTNYADSVKGRFTISRDNAKNPVYLQMNSLKPEDTAVYYCASSRYYKYVERDYWGQGTQVTVSS	high polyreactivity
QGQLVESGGGLVQAGGSLRLSCAASGSIFDLNAMGWYRQAPGKERELVAAISSGGGTYYADSVKGRFTISRDNAKNTVYLQMNCLKPEDTAVYYCNRVTRWTYNYWGQGTQVTVSS	high polyreactivity
QGQLVESGGGLVQAGGSLRLSCAASGSIFTFYTLGWYREAPGKVRELVAAINWSGSRTYYAASVKGRFTISRDNAKNTVYLQMNSLKPEDTAVYYCNAAIRYDWYQVLWNFSRESNYWGQGTQVTVSS	high polyreactivity
QGQLVESGGGLVQAGGSLRLSCAASGSIFVQNAMGWYRQAPGKEREFVAVINSGDSTNYADSVKGRFTISRDIAKNTVYLQMNSLKADDTAVYYCAVDDVSYYYLRAYNYELSWYGSGLDYWGQGTQVTVSS	low polyreactivity
QGQLVESGGGLVQAGGSLRLSCAASGSTFRNYAMGWYRQAPGKERELVAAISGSGGRTNYADSVKGRFTISRDNAKNTVYLQMNSLKPEDTAVYYCNARFPDWALSEISLSTTYGYWGQGTQVTVSS	low polyreactivity
